According to FireProtDB:
Several values for one entry are separate records, joined by “and”; a condition that tells them apart may be missing. Equal entries are not always repeated.

B1: 3-isopropylmalate dehydrogenase, P05645 (parent)
chain: MKKRIALLPGDGIGPEVLESATDVLKSVAERFNHEFEFEYGLIGGAAIDEHHNPLPEETVAACKNADAILLGAVGGPKWDQNPSELRPEKGLLSIRKQLDLFANLRPVKVFESLSDASPLKKEYIDNVDFVIVRELTGGLYFGQPSKRYVNTEGEQEAVDTLFYKRTEIERVIREGFKMAAARKGKVTSVDKANVLESSRLWREVAEDVAQEFPDVKLEHMLVDNAAMQLIYAPNQFDVVVTENMFGDILSDEASMLTGSLGMLPSASLSSSGLHLFEPVHGSAPDIAGKGMANPFAAILSAAMLLRTSFGLEEEAKAVEDAVNKVLASGKRTRDLARSEEFSSTQAITEEVKAAIMSENTISNV
B2: Serine hydroxymethyltransferase, P0A825 (parent)
chain: MLKREMNIADYDAELWQAMEQEKVRQEEHIELIASENYTSPRVMQAQGSQLTNKYAEGYPGKRYYGGCEYVDIVEQLAIDRAKELFGADYANVQPHSGSQANFAVYTALLEPGDTVLGMNLAHGGHLTHGSPVNFSGKLYNIVPYGIDATGHIDYADLEKQAKEHKPKMIIGGFSAYSGVVDWAKMREIADSIGAYLFVDMAHVAGLVAAGVYPNPVPHAHVVTTTTHKTLAGPRGGLILAKGGSEELYKKLNSAVFPGGQGGPLMHVIAGKAVALKEAMEPEFKTYQQQVAKNAKAMVEVFLERGYKVVSGGTDNHLFLVDLVDKNLTGKEADAALGRANITVNKNSVPNDPKSPFVTSGIRVGTPAITRRGFKEAEAKELAGWMCDVLDSINDEAVIERIKGKVLDICARYPVYA
B3: Protein GrpE, Q65H53 (parent)
chain: MAEEKQNEELNEQEELNETEAETAEAEQTAAEADAPAEETQTEMLEKQLKELQERLEEKENKLLRVQADFENYKRRARLDLEAAEKYRSQRIISDLLPALDNFERALQIDPDNEQTKSLLQGMEMVHRQILEALKNEGVEQIPSVGEQFDPNMHQAVMQVEDEAYESNAVVEELQKGYKLKDRVIRPSMVKVNQ
B4: Beta-crystallin B2, P02522 (parent)
chain: MASDHQTQAGKPQPLNPKIIIFEQENFQGHSHELNGPCPNLKETGVEKAGSVLVQAGPWVGYEQANCKGEQFVFEKGEYPRWDSWTSSRRTDSLSSLRPIKVDSQEHKITLYENPNFTGKKMEVIDDDVPSFHAHGYQEKVSSVRVQSGTWVGYQYPGYRGLQYLLEKGDYKDSGDFGAPQPQVQSVRRIRDMQWHQRGAFHPSS
B5: Cytochrome c2, P00094 (parent)
chain: MKISLTAATVAALVLAAPAFAGDAAKGEKEFNKCKTCHSIIAPDGTEIVKGAKTGPNLYGVVGRTAGTYPEFKYKDSIVALGASGFAWTEEDIATYVKDPGAFLKEKLDDKKAKTGMAFKLAKGGEDVAAYLASVVK
B6: Alpha-amylase, P29957 (parent)
chain: MKLNKIITTAGLSLGLLLPSIATATPTTFVHLFEWNWQDVAQECEQYLGPKGYAAVQVSPPNEHITGSQWWTRYQPVSYELQSRGGNRAQFIDMVNRCSAAGVDIYVDTLINHMAAGSGTGTAGNSFGNKSFPIYSPQDFHESCTINNSDYGNDRYRVQNCELVGLADLDTASNYVQNTIAAYINDLQAIGVKGFRFDASKHVAASDIQSLMAKVNGSPVVFQEVIDQGGEAVGASEYLSTGLVTEFKYSTELGNTFRNGSLAWLSNFGEGWGFMPSSSAVVFVDNHDNQRGHGGAGNVITFEDGRLYDLANVFMLAYPYGYPKVMSSYDFHGDTDAGGPNVPVHNNGNLECFASNWKCEHRWSYIAGGVDFRNNTADNWAVTNWWDNTNNQISFGRGSSGHMAINKEDSTLTATVQTDMASGQYCNVLKGELSADAKSCSGEVITVNSDGTINLNIGAWDAMAIHKNAKLNTSSASSTESDWQRTVIFINAQTQSGQDMFIRGGIDHAYANANLGRNCQTSNFECAMPIRHNNLKNVTTSPWKANDNYLDWYGIENGQSSEAEGSATDWTTNVWPAGWGAEKTVNTDGFGVTPLNIWGEHYWMLDVDMDCSKAVNGWFELKAFIKNGQGWETAIAQDNAPYTSTNHMAQCGKINKFEFNNSGVVIRSF
B7: Subtilisin-chymotrypsin inhibitor-2A, P01053 (parent)
chain: MSSVEKKPEGVNTGAGDRHNLKTEWPELVGKSVEEAKKVILQDKPEAQIIVLPVGTIVTMEYRIDRVRLFVDKLDNIAQVPRVG

Variants of: B1
Details: Bacillus subtilis (strain 168); pH 7.6; Thermal; CD; Potassium phosphate 20 mM; reversible: yes; whole UniProt chain shown

Row | Variant | Tm
1 | I95L M292I T308I | 70 °C
2 | I95L T308I | 66 °C

Variants of: B2
Details: Escherichia coli (strain K12); pH 7.5; 30 °C; Urea; Fluorescence; Tris-HCl 20 mM; structure 1DFO; whole UniProt chain shown

Row | Variant | unfolding free energy
3 | W16Y | 3.7 kcal/mol
4 | W385F | 4 kcal/mol
5 | W16F W183F | 5.9 kcal/mol

Same assay, conditions: Escherichia coli (strain K12); pH 7.5; 30 °C; Urea; Fluorescence; Tris-HCl 20 mM; transition: 3; structure 1DFO; whole UniProt chain shown

Row | Variant | unfolding free energy
6 | W183F W385F | 4.2 kcal/mol and 5.5 kcal/mol

Variants of: B3
Details: Bacillus licheniformis (strain ATCC 14580 / DSM 13 / JCM 2505 / CCUG 7422 / NBRC 12200 / NCIMB 9375 / NCTC 10341 / NRRL NRS-1264 / Gibson 46…; pH 7; Thermal; CD; Hepes 10 mM; reversible: Yes; whole UniProt chain shown

Row | Variant | Tm | change of melting temperature, mutant - wild type (higher = more stable) | unfolding enthalpy (van 't Hoff)
7 | L52P | 40.1 °C | -11.9 °C | 37.5 kcal/mol
8 | L134H | 43.2 °C | -8.8 °C | 21 kcal/mol

Variants of: B4
Details: Bos taurus; pH 7.2; Thermal; fluorescence; sodium phospahte 20 mM; NaCl; transition: 2; structure 2BB2; whole UniProt chain shown

Row | Variant | Tm | change of melting temperature, mutant - wild type (higher = more stable)
9 | W59C | 46.8 °C | -10 °C

Variants of: B5
Details: Rhodobacter capsulatus (strain ATCC BAA-309 / NBRC 16581 / SB1003); pH 7.5; 30 °C; GdnHCl; CD; Tris 20 mM; structure 1C2R; whole UniProt chain shown

Row | Variant | denaturant midpoint (higher = more stable)
10 | G55S | 0.86 M
11 | P56A | 0.9 M

Variants of: B6
Details: Pseudoalteromonas haloplanktis; pH 7.2; Thermal; DSC; MOPS 30 mM; NaCl 50 mM; reversible: yes; structure 1AQH; whole UniProt chain shown

Row | Variant | Tm | change of melting temperature, mutant - wild type (higher = more stable) | unfolding enthalpy (calorimetric)
12 | Q82C A123C | 40 °C | -4 °C | 78 kcal/mol

Same assay, conditions: Pseudoalteromonas haloplanktis; pH 7.2; Thermal; DSC; Mops 30 mM; NaCl 50 mM; reversible: yes; structure 1AQH; whole UniProt chain shown

Row | Variant | Tm | change of melting temperature, mutant - wild type (higher = more stable) | unfolding enthalpy (calorimetric)
13 | K324R N174D V220F Q188I T256V | 51.8 °C | 7.8 °C | 277 kcal/mol

Variants of: B7
Details: Hordeum vulgare; pH 4.2; 50 °C; GdnHCl; Fluorescence; Sodium acetate 50 mM; reversible: yes; structure 2CI2; whole UniProt chain shown

Row | Variant | ddG of mutation (higher = less stable) | unfolding free energy
14 | R68A | 1.4 kcal/mol | 4.1 kcal/mol

Same assay, conditions: Hordeum vulgare; pH 6.3; 25 °C; GdnHCl; Fluorescence; MES 50 mM; structure 2CI2; whole UniProt chain shown

Row | Variant | unfolding free energy
15 | P53E F70A | 2.61 kcal/mol
16 | L21M | 7.3 kcal/mol

Same assay, conditions: Hordeum vulgare; pH 7; 30 °C; GdnHCl; Fluorescence; MOPS 50 mM; structure 2CI2; whole UniProt chain shown

Row | Variant | ddG of mutation (higher = less stable) | denaturant m value | unfolding free energy
17 | I40V | 1.17 kcal/mol | 1.92 kcal/mol/M | 5.88 kcal/mol
18 | I40L | 1.96 kcal/mol | 1.92 kcal/mol/M | 5.09 kcal/mol
